# B1: α-GCGR: potent monoclonal GCGR blocking antibody, HCVR/LCVR SEQ ID NOs: 86/88 (antibody, V domains shown)
# VH: EVQLVESGGGLVQPGGSLRLSCAASGFTFSNYLMNWVRQAPGKGLEWLANIQEDGIEKYYVDSVKGRFTISRDNAKNSLYLQMNSLRAEDTAVYYCAREPSHYDILTGYDYYYGMDVWGQGTTVTVS
# VL: DIQMTQSPSSLSASVGDRVTITCRASQGIRNDLGWYQQKPGKAPKRLIYAASSLQSGVPSRFSGSGSGTEFILTVSSLQPEDFATYYCLQYNSNPFTFGPGTKVDIK
# Test system: isolated pancreatic islets from mice
# Assay: RNAseq gene expression in isolated pancreatic islets of GCGR antibody treated mice (Table 5)
# Format: in vivo, mouse
# Conditions: isolated islets, 10 mg/kg, 21 days
# Experimental: Mouse islets were isolated by density gradient separation after perfusing pancreas with Liberase TL (Roche, Indianapolis) through the common bile duct. Following a 13 min digestion at 37° C., the pancreas solution was washed and filtered through a 400-μm wire mesh strainer and islets were separated by Histopaque gradient centrifugation (Sigma-Aldrich). Isolated islets were cultured overnight in RPMI-1640 medium supplemented with 10% (v/v) FBS, 10 mM HEPES, 50 μM β-mercaptoethanol, 1.0 mM sodium-pyruvate, 100 U/mL penicillin and 100 μg/mL streptomycin at 37° C. with a 5% CO2 in air atmosphere.
# Total RNA was purified from all samples using MagMAX™-96 for Microarrays Total RNA Isolation Kit (Ambion by Life Technologies) according to manufacturer's specifications. Genomic DNA was removed using MagMAX™Turbo™DNase Buffer and TURBO DNase from the MagMAX kit listed above (Ambion by Life Technologies). mRNA was purified from total RNA using Dynabeads® mRNA Purification Kit (Invitrogen). Strand-specific RNA-seq libraries were prepared using ScriptSeq™ mRNA-Seq Library Preparation Kit (Epicentre). Twelve-cycle PCR was performed to amplify libraries. Sequencing was performed on Illumina HiSeq®2000 (Illumina) by multiplexed single-read run with 33 cycles.
# Raw sequence data (BCL files) were converted to FASTQ format via Illumina Casava 1.8.2. Reads were decoded based on their barcodes and read quality was evaluated with FastQC (http://www.bioinformatics.babraham.ac.uk/projects/fastqc/). Reads were mapped to the mouse transcriptome (NCBI GRCh37) using CLC Genomics Workbench Version 7.0 (CLCbio) or TopHat2 (Version 2.0.10) allowing two mismatches. Reads mapped to the exons of a gene were summed at the gene level. To identify differentially expressed genes, the statistical significance (p-value) of the differential expressions was assessed with DESeq package (version 1.6 or 2.0). […]
molecule,measurement,setting,value
B1,1700086L19Rik RPKM,gene 1700086L19Rik,119.24 RPKM
same,1810011O10Rik RPKM,gene 1810011O10Rik,5.88 RPKM
same,1810041L15Rik RPKM,gene 1810041L15Rik,3.14 RPKM
same,4930539E08Rik RPKM,gene 4930539E08Rik,5.64 RPKM
same,9030617O03Rik RPKM,gene 9030617O03Rik,5.31 RPKM
same,AW551984 RPKM,gene AW551984,5.27 RPKM
same,Acta1 RPKM,gene Acta1,1.05 RPKM
same,Agpat4 RPKM,gene Agpat4,4.89 RPKM
same,Agt RPKM,gene Agt,22.33 RPKM
same,Ang RPKM,gene Ang,69.38 RPKM
same,Ano1 RPKM,gene Ano1,1.26 RPKM
same,Anxa3 RPKM,gene Anxa3,11.67 RPKM
same,Anxa13 RPKM,gene Anxa13,0.65 RPKM
same,Apoa2 RPKM,gene Apoa2,10.76 RPKM
same,Apod RPKM,gene Apod,2.75 RPKM
same,Apol7a RPKM,gene Apol7a,0.28 RPKM
same,Arg1 RPKM,gene Arg1,59.62 RPKM
same,Arx RPKM,gene Arx,6.42 RPKM
same,Asb11 RPKM,gene Asb11,1.00 RPKM
same,Avpr1b RPKM,gene Avpr1b,4.45 RPKM
same,Basp1 RPKM,gene Basp1,11.31 RPKM
same,Blnk RPKM,gene Blnk,3.87 RPKM
same,Bok RPKM,gene Bok,1.31 RPKM
same,Car9 RPKM,gene Car9,0.79 RPKM
same,Cdc42ep1 RPKM,gene Cdc42ep1,1.77 RPKM
same,Clec2d RPKM,gene Clec2d,9.10 RPKM
same,Clic6 RPKM,gene Clic6,0.26 RPKM
same,Clu RPKM,gene Clu,481.69 RPKM
same,Cnih2 RPKM,gene Cnih2,1.98 RPKM
same,Cobl RPKM,gene Cobl,2.27 RPKM
same,Ctse RPKM,gene Ctse,1.73 RPKM
same,Dbpht2 RPKM,gene Dbpht2,27.59 RPKM
same,Dmbt1 RPKM,gene Dmbt1,10.80 RPKM
same,Dpp6 RPKM,gene Dpp6,8.00 RPKM
same,Drc1 RPKM,gene Drc1,4.67 RPKM
same,Eda2r RPKM,gene Eda2r,1.98 RPKM
same,Eef1a2 RPKM,gene Eef1a2,35.85 RPKM
same,Ehf RPKM,gene Ehf,10.90 RPKM
same,Etv1 RPKM,gene Etv1,33.99 RPKM
same,F5 RPKM,gene F5,1.71 RPKM
same,Ffar4 RPKM,gene Ffar4,5.88 RPKM
same,Fgd3 RPKM,gene Fgd3,0.83 RPKM
same,Fgl2 RPKM,gene Fgl2,37.91 RPKM
same,Gamt RPKM,gene Gamt,0.58 RPKM
same,Gbp8 RPKM,gene Gbp8,7.39 RPKM
same,Gbp9 RPKM,gene Gbp9,4.03 RPKM
same,Gc RPKM,gene Gc,153.00 RPKM
same,Gcg RPKM,gene Gcg,63254.16 RPKM
same,Gcnt4 RPKM,gene Gcnt4,3.02 RPKM
same,Gfra1 RPKM,gene Gfra1,3.43 RPKM
same,Gfra3 RPKM,gene Gfra3,8.18 RPKM
same,Gm609 RPKM,gene Gm609,6.28 RPKM
same,Gm20554 RPKM,gene Gm20554,2.33 RPKM
same,Gng2 RPKM,gene Gng2,7.35 RPKM
same,Gpr119 RPKM,gene Gpr119,15.35 RPKM
same,Gpx3 RPKM,gene Gpx3,638.48 RPKM
same,Hspb1 RPKM,gene Hspb1,10.32 RPKM
same,Ifih1 RPKM,gene Ifih1,10.68 RPKM
same,Igsf23 RPKM,gene Igsf23,0.40 RPKM
same,Irx1 RPKM,gene Irx1,5.96 RPKM
same,Irx2 RPKM,gene Irx2,8.92 RPKM
same,Itgb4 RPKM,gene Itgb4,1.65 RPKM
same,Jchain RPKM,gene Jchain,74.91 RPKM
same,Kcna2 RPKM,gene Kcna2,0.81 RPKM
same,Kcnab3 RPKM,gene Kcnab3,2.28 RPKM
same,Kcnf1 RPKM,gene Kcnf1,0.86 RPKM
same,Kcnk3 RPKM,gene Kcnk3,8.14 RPKM
same,Klb RPKM,gene Klb,4.59 RPKM
same,Klhl13 RPKM,gene Klhl13,5.34 RPKM
same,Krt19 RPKM,gene Krt19,26.52 RPKM
same,Krt20 RPKM,gene Krt20,0.65 RPKM
same,Krt23 RPKM,gene Krt23,2.17 RPKM
same,Lamb3 RPKM,gene Lamb3,1.16 RPKM
same,Mafb RPKM,gene Mafb,24.19 RPKM
same,Mamld1 RPKM,gene Mamld1,5.64 RPKM
same,Mapk13 RPKM,gene Mapk13,2.86 RPKM
same,Matn2 RPKM,gene Matn2,2.36 RPKM
same,Ndst4 RPKM,gene Ndst4,6.30 RPKM
same,Necab2 RPKM,gene Necab2,7.29 RPKM
same,Nefm RPKM,gene Nefm,6.35 RPKM
same,Npr1 RPKM,gene Npr1,3.07 RPKM
same,Nptxr RPKM,gene Nptxr,4.03 RPKM
same,Nsg2 RPKM,gene Nsg2,3.49 RPKM
same,Ntn1 RPKM,gene Ntn1,0.65 RPKM
same,Nudt11 RPKM,gene Nudt11,8.49 RPKM
same,Nyap1 RPKM,gene Nyap1,3.82 RPKM
same,Ocrl RPKM,gene Ocrl,37.04 RPKM
same,Oit1 RPKM,gene Oit1,4.78 RPKM
same,Olfm3 RPKM,gene Olfm3,3.59 RPKM
same,Oxtr RPKM,gene Oxtr,7.25 RPKM
same,Pdk4 RPKM,gene Pdk4,25.17 RPKM
same,Peg10 RPKM,gene Peg10,17.17 RPKM
same,Pla2g2d RPKM,gene Pla2g2d,5.69 RPKM
same,Ptf1a RPKM,gene Ptf1a,0.52 RPKM
same,Ptprd RPKM,gene Ptprd,4.67 RPKM
same,Ptprg RPKM,gene Ptprg,3.12 RPKM
same,Rasd1 RPKM,gene Rasd1,10.12 RPKM
same,Rbms3 RPKM,gene Rbms3,2.38 RPKM
same,Rbp4 RPKM,gene Rbp4,210.71 RPKM
same,Rcn1 RPKM,gene Rcn1,12.75 RPKM
same,Rragb RPKM,gene Rragb,33.15 RPKM
same,Sema3e RPKM,gene Sema3e,2.28 RPKM
same,Serpinb6b RPKM,gene Serpinb6b,1.59 RPKM
same,Serpine2 RPKM,gene Serpine2,10.10 RPKM
same,Serping1 RPKM,gene Serping1,82.99 RPKM
same,Sftpd RPKM,gene Sftpd,4.65 RPKM
same,Sgce RPKM,gene Sgce,10.55 RPKM
same,Sh2d4a RPKM,gene Sh2d4a,0.65 RPKM
same,Sh3bgr RPKM,gene Sh3bgr,3.39 RPKM
same,Slc38a3 RPKM,gene Slc38a3,0.79 RPKM
same,Slc38a5 RPKM,gene Slc38a5,52.26 RPKM
same,Smarca1 RPKM,gene Smarca1,15.49 RPKM
same,Spns2 RPKM,gene Spns2,0.98 RPKM
same,St8sia1 RPKM,gene St8sia1,2.35 RPKM
same,Syt16 RPKM,gene Syt16,2.26 RPKM
same,Tead2 RPKM,gene Tead2,2.17 RPKM
same,Tesc RPKM,gene Tesc,4.72 RPKM
same,Tmsb15b1 RPKM,gene Tmsb15b1,28.28 RPKM
same,Tspan1 RPKM,gene Tspan1,1.40 RPKM
same,Ttr RPKM,gene Ttr,5356.49 RPKM
same,Vnn1 RPKM,gene Vnn1,0.42 RPKM
same,Vwde RPKM,gene Vwde,5.37 RPKM
same,Wfdc16 RPKM,gene Wfdc16,5.87 RPKM
same,Wnk3 RPKM,gene Wnk3,9.33 RPKM
